Measured values: publication PMC11892807

Experiments:
[1] = molecular target: CA(A14C/E45C/W184A/M185A) (HIV-1); assay: cross-linking; disulfide cross-linking of monomeric CA with DMSO, by sequential dialysis out of beta-mercaptoethanol at 4 C (final 20 mM Tris-HCl pH 8, 40 mM NaCl, no reducing agent); products on SDS-PAGE; legend: 1 uM CA, methods: diluted to 1 uM, then concentrated to 125 uM
[2] = molecular target: CA(A14C/E45C/W184A/M185A) (HIV-1); assay: cross-linking; as the DMSO reaction, but 2 uM LEN pre-incubated with monomeric CA (1 uM) before concentration to 125 uM and sequential dialysis out of beta-mercaptoethanol; products on SDS-PAGE
[3] = molecular target: CA(A14C/E45C/W184A/M185A) (HIV-1); assay: mass photometry; no ligand added; 2 uL of sample into 18 uL buffer, 60 s at 331 Hz; unliganded WT CA and pre-formed cross-linked pentamers and hexamers as controls
[4] = molecular target: CA(N21C/A22C/W184A/M185A) (HIV-1); assay: cross-linking; disulfide cross-linking of monomeric CA with DMSO, by sequential dialysis out of beta-mercaptoethanol at 4 C (final 20 mM Tris-HCl pH 8, 40 mM NaCl, no reducing agent); products on SDS-PAGE; legend: 1 uM CA, methods: diluted to 1 uM, then concentrated to 125 uM
[5] = molecular target: CA(N21C/A22C/W184A/M185A) (HIV-1); assay: mass photometry; no ligand added; 2 uL of sample into 18 uL buffer, 60 s at 331 Hz; unliganded WT CA and pre-formed cross-linked pentamers and hexamers as controls

## CA(A14C/E45C/W184A/M185A) (natural protein)
[1]
  stoichiometry N: 6
[2]
  stoichiometry N: 6
[3]
  stoichiometry N: 6

## CA(N21C/A22C/W184A/M185A) (natural protein)
[4]
  stoichiometry N: 5
[5]
  stoichiometry N: 5
